Test results from IntAct's records for PubMed 24855951.

Target: dtx_drome dx (UniProt Q23985)
Sequence (Q23985 whole entry): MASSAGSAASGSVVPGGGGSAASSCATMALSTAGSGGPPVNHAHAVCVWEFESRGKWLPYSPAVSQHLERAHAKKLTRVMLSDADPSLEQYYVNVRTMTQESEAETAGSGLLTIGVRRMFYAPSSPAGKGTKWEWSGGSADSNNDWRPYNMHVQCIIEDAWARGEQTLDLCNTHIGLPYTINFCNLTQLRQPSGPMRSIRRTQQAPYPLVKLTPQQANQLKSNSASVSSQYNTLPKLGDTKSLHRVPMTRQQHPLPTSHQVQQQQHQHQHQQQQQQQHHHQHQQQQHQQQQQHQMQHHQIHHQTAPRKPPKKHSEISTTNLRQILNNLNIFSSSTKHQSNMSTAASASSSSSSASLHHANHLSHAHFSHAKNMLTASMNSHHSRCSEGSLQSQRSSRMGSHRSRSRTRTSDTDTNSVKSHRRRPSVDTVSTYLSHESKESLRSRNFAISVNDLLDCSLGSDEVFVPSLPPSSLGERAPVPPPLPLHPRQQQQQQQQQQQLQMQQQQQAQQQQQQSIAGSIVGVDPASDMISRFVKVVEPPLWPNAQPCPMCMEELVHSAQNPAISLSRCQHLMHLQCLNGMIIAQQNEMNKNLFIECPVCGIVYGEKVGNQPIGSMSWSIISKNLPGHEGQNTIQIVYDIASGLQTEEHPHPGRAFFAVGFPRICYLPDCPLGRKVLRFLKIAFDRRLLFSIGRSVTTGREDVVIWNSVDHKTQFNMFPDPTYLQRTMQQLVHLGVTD

**Q.** How did the “effect of a mutation on the interaction” value turn out when “Neurogenic locus Notch protein (Drosophila melanogaster (Fruit fly)), P07207 R2027A” was run?
**A.** Its value is “disrupting interaction strength”.
